Our source for the stoichiometry N values is paper PMC6972935.

Test [1] concerns the target KS-PPT di-domain construct of the yeast FAS α-subunit (S. cerevisiae). Description: SEC; Superdex 200 Increase 30/100 GL column with calibration curve; KS-PPT di-domain construct. In general terms: SEC sorts molecules by how far they enter the pores of the column.
For test [2] the target is unchanged. The test is described as above. This is another data set of the same source.
Test [3] addresses α_ΔMPT-ACP construct of the yeast FAS α-subunit (KS-PPT elongated N-terminally by DM1, DM2 and KR) (S. cerevisiae). Put plainly: SEC; Superose 6 Increase 30/100 GL column, TRIS-HCl buffer N100; protein preparations from purifications under native and denaturing conditions (refolded).

Read-outs that look alike come from different tables or passages of the source.

Turning to “KS-PPT di-domain construct of the yeast FAS α-subunit (domain or fragment)”, the stoichiometry N amounted to 2 in test [1] and 2.5 in test [2].
Regarding “α_ΔMPT-ACP construct of the yeast FAS α-subunit (KS-PPT elongated N-terminally by DM1, DM2 and KR) (domain or fragment)”, in test [3], the stoichiometry N was 2.

As a reminder, the stoichiometry N is the number of molecules, sites or subunits per partner or assembly.
